One block for each substance: values may come before it.
Key:
[1] = target: ^MsmClpP1 R168A, purified (Mycobacterium smegmatis); assay: AUC; oligomeric state of each purified protein alone, in the absence of z-LL (Fig. S4)
[2] = target: ^MsmClpP1 Y110A (Mycobacterium smegmatis); assay: native gel or EMSA; 5 µg of purified protein on 4-16% Native-PAGE Novex Bis-Tris gels, stained with Coomassie Brilliant Blue R250
[3] = target: ^MsmClpP1, wild type, purified (Mycobacterium smegmatis); assay: as above
[4] = target: ^MsmClpP1, wild type, purified (Mycobacterium smegmatis); assay: AUC; oligomeric state of each purified protein alone, in the absence of z-LL (Fig. S4)
[5] = target: ^MsmClpP1, wild type, purified (Mycobacterium smegmatis); assay: crystal structure; ^MsmClpP1 crystallised by vapor diffusion at 20 °C from sodium malonate pH 6.6-6.8; one heptamer in the asymmetric unit, tetradecamer from crystallographically related heptamers; 2.0 Å
[6] = target: ^MsmClpP2 R189A, purified (Mycobacterium smegmatis); assay: AUC; oligomeric state of each purified protein alone, in the absence of z-LL (Fig. S4)
[7] = target: ^MsmClpP2, wild type, purified (Mycobacterium smegmatis); assay: as above

Substance: ^MsmClpP1 R168A, purified (enzyme)
stoichiometry N [1]: 7

Substance: ^MsmClpP1, wild type, purified (enzyme)
stoichiometry N [3]: 14
stoichiometry N [4]: 7
stoichiometry N [5]: 14

Now from value to substance:

stoichiometry N [2]: 14
Substance: ^MsmClpP1 Y110A (enzyme)

stoichiometry N [6]: 7
Substance: ^MsmClpP2 R189A, purified (enzyme)

stoichiometry N [7]: 7
Substance: ^MsmClpP2, wild type, purified (enzyme)

From paper PMC6889138
